Measurements published in the domain aggregation screens of Martell et al. (2025).

Assay: soluble fraction after stress (log2 fold change); higher = more stays soluble; pooled small domains, quantitative proteomics
Settings: stress: 75 degC
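Note: 20 min heating vs room temperature control held 20 min.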

| Sequence | soluble fraction (log2) |
| --- | --- |
| HMIGIEALAGEIDRVRQVLTGGGGLSDVQLFSQLKALNEIKAALGASPDPRAPELVQRVDQLLEAAFRS | 0.395 |
| HMIGIGSDVPNKLKPAIYSFGLVAVGEKSVIPDGVQIGKNTAVSGVTSKEDYPDGVLESGETLIKA | 0.186 |
| HMIGKLTSSKLAAIHKMKTNELLAHFTEKGFLNINDAGKYILTQQGKDVGAEFKTSQYGGYFLWPENIE | -0.666 |
| HMIGTPLSEWQKDAPEEITRDQIAELVILKFVTVEQLALASDAQLQRIGMGGVGLRERAKLYLNRK | -1.87 |
| HMIGVNMEKSTVEKFANELNLPIDLLLKQLESAGIKKTSGAEELLEADKSALLNYLQIEHGA | 0.725 |
| HMIGVQEFAMTYALTRRETEITQLIIQGKSNAMIAGELFISETTVKKHVSNIFEKTGVSRREELMVRVQAE | -1.98 |
| HMIHANGLTDRQEMILEFIRSYISENNYPPSVREIGKGVGLASSASVHNNMKKLASLGFLNWDTD | -1.93 |
| HMIHFDHPERSILDTMLYEKKGMTAQSARNRLAAYQFQGEDVFKPVSVLSGGELSRITLAIKNAMADK | -0.36 |
| HMIHQPNNETTRNLIAGVVKKSLSVWETRVQVDGVDVTTAKDNLAEVHINIRYRLRHNQTPASLGLRLNLG | -0.0232 |
| HMIHSEDMDDHILGHKLVDQYLNKHIEFDNIKKAWNYHTVAIKKFGRYPHRNKILKRESTIEEIDFLKQP | 0.252 |
| HMIHSEEIQDHIFVKQLGEVFLRNHINYENIMKSWDDHTNVIKRFRRYPHRNKILNRESTIDEISFLKE | 0.176 |
| HMIIDTELMTRVMKFGFSQADASDLVAQHSDDLLRTAISRVEARAESKGMTPLETPAGYFRWTLQDLVRNP | -2.04 |
| HMIIIMKKSATNSEVRKVIERAEKEGLTVQVNQLEKQQVLGLVGDTRLIQDVAFLRYEGVENVERI | -2.37 |
| HMIILYTDEQQRIIDRLNEFIGEQPSQNEAAKLLGISAPILTNLRKGTYTGTVDKFMNKLAAYFNIKADLG | -1.3 |
| HMIIMVNLYQIWDKEVQGLDSVGAKPEQIEARRQAIAAHFESKARQAGMSSKDIYATLDNFDTYSRQKTS | -2.26 |
| HMIINFDAIRLTTELNKYNRHKAIPNSFFDGTFTILDVRDLYDSLSPKVQKIADTLIEQYNVDVKQ | -1.82 |
| HMIISMKKGATPQEISHVRKLIEELGYKVHESQGSERMVFGAIGDERSKHRLTSLEAQPGVEKVIPILA | 0.0278 |
| HMIISMKKTATKEQIAHVRELIEGMGYKAHMSVGAERVIFGAIGDERGKERLVSLEAQPGVEKVIPIL | -0.445 |
| HMIITLNIENLKRARENAGLTQTQAAQKIGVSDGTYKNYEQGKREPNGDKIVTIANAFGVTTDYLLGR | -0.475 |
| HMIIVMRKGATEAQVNDIVERVRAAGFGVHLSQGEERTIIGAIGGDRAVLADLNLEAAPGVERVTPIS | -0.176 |
| HMIIYGLNPVKDFINLFPNKISTLFISKNKLSDSEMKSVVNINTVYVSDAELKRITGTTKHQSLAAEID | -1.2 |
| HMIKILGSAYRHGLDDDDILRAWNYHIQEFFEGEDPEKIVRLGFDTHGRLLEIGGEIYPGGGEKIFHAM | -0.733 |
| HMIKITLPDGSVKEYKKGITPAEVAQSISEGLARNVISASYNGKTIETVTPLTTDGSLVLYTWDSPEGK | 0.0404 |
| HMIKLTVRQQEILDLIARSIDQTGFPPTRAEIAAELGFKSVNAAEEHLQALARKGVIEMVPGISRGIRLVQ | -1.48 |
| HMIKRNPLDEIEGVGPGRKKALLHAFGSAKGVSRASVVDLVKVEGVSQALAERIHDFFHPATR | -0.299 |
| HMIKSIRELAEVITLWKNQGKTILIAEHRLSYLMDLADRVLYMKDGQIENDFSMADFRKIPPDEISRMGLR | 0.103 |

| Sequence | soluble fraction (log2) |
| --- | --- |
| HMIKVAANESNRSDVLEIVRLFRVRVVDVNPESLTIEATGAEGKIDALLGLLEHYGVIELVRSGAVAVT | -1.86 |
| HMILESREKYLGEVLEVLVEEEKEGEYFGYSQNYLRVKFKLEEKNLINQLINIKIKSIEDDILIGEKEN | -3.46 |
| HMILKNVTSDLANKRLDKVASILFQTYSRTQIKKWILEGRVLVNGEISNPKDHVHENDEIEINPI | -1.9 |
| HMIMISKSFEINEDNINKRLDIFLTENLDGLSRGIVQKYISLEQITVNKESSHKDYRLKLDDFIEVKIQAH | -4 |
| HMIMNDIQAKVLEIAETKDLGSITYYRLSKMLGVDHPYRVKYAIDKLIEKGLLTAKSDGSITKAI | -1.47 |
| HMIMTTKVSGIMFDKFNPSAILNINGMDYLVRSGDIINGYKILSIGQETVTVQYGANVYKASVG | -4.48 |
| HMIMVAGHLQIKKGKYYMVLELKSESGERKTKWISTGLSAKGNKRKAEAMLEEARENYQSTDA | -1.13 |
| HMINIFKVKKAMEEIFASEWEDSPYTDQKISQILWSRGFSVSTGLVEKYRGQMGVPDANSRLNLN | -2.49 |
| HMINIGANIRAIRKQKNIKQVDLVRLLQLEGVEITRETLVKIESGVQHIKASQLRGIRDALGTTYDELL | -2.88 |
| HMINITALVKQLGGVDISKFNSAFKLLQQGKPLNTISNKVMADTFVALMKNSDEALNTKFRAAFKKI | -0.441 |
| HMINKIANLSAELRMEGLPVSIRSTQAAVKIYMDLGGDDRNLLKTALMSIYVKDRYDIPKFNKVFEKLFA | -1.66 |
| HMINKQPKDYEYFLEKWHFTQTEKHQLHNLILKLNIRYPNKDFLKITENLDNGKLVLKKLEERLSKT | -1.33 |
| HMINNINKLPETQFIKLFANIFENSQFIAVALYKKKGDGFSDFKDLINKIMDIFENTTKEKKLKILNA | -0.381 |
| HMINPASEKQLSFANSLIAKKEGGTETLNHYLHNRKVSSLEELDRKDVSEIINALKFAKEVT | 0.641 |
| HMINRPVYVPLYTNLDVKDAAEIAEKLEENNIAYKLEDQGETILVNPEQKYKVRLMLAQEGLPKG | 0.0786 |
| HMINSFDYLQAIFTELMKSQSKMTNQDAAKRLFMQGKVAVSNRDREGLRMVLAQLVTLLPKEELGGLSTVS | -1.38 |
| HMIPESVQGIEEFLATGALKGIGKKTAAAIVHKFGKDTLRIMEEEPERLAEVSGIGEKKAAAIGEAFALH | 0.134 |
| HMIPNPMTDRELEVLGLLASGKTYKQVARALDLSQSTVRNHLHNVYHKLNVVDRAQAVIVSRENGW | -0.379 |
| HMIPPGTITIEGAITKVPVFLDGKQIGTVPLTKEDVEPGKYRIRVLGVGRVITIDPGEKENVLFSGEDLGL | -0.0563 |
| HMIPTDPNGDLIKILYTSDQINELYARAKLNDVEDLFLDWTKNVLGESNFEETGPTKNEYLIPQ | -0.0775 |
| HMIPTTELAERLGTTKVANMIMLGALIKASGIISFDDMIKNLGELLGEGKAKLIKLNKEALEVGFN | 0.139 |
| HMIPYSDLLKLLSNDAMPKFRNKDGWAKIHALETYLASRWSYQEYGFASFTVLLETVHNAEIRNDSVRLM | -0.479 |
| HMIQTMVVTDLKNGTIFKENGHPFIVLKYEHIKVSRGSAQVRVKMKNLITGQVLEKSWQSTAHVDDT | -3.24 |
| HMIRMPNLIGLSVRSAEQQLVIAGLKKGIVHQVNDPRLKEVIDMQALGHKITAGSSIPKGTEVDLYIGNGT | -0.944 |
| HMISAVDLMAARRKIEAGITNLQPGQAFTLPNKVGWVKRMTGGSYFIQGNGGYTASVRTISEAIQAAAMLL | -3.11 |
| HMISDQENDLNLKHLFDTADQNKDGLILESELKMLMTNLEINKETYDTVMKQITPAGMDYKTFSSL | 0.293 |

| Sequence | soluble fraction (log2) |
| --- | --- |
| HMISFLNFVRKEIDASQLKDSTKQNHLTTIGLLQSFKPSIEFKDLNYNFITSFEKYLYDAGYQM | 0.0114 |
| HMISKQQRQALILDIIQKQSITSQEALLTELQRHHVMTTQTTVSRDIRALGIVRIKDVNGELSYQQLQ | -2.69 |
| HMISKRFQIDEDNSNKRIDIFLTQSLDSISRGIVQQLILENKVEVNGGPVKRNYLIKIGDVIDVKIDL | -2.96 |
| HMISKTFEINEDNINNRLDIFLANQFDNLSRGIVQKLIESHSVSVSGNFVEKDYKLKLGDIIDVEINLS | -1.64 |
| HMISLNEDQKLAILNEWNQRPDDPPFIKELIELVFPDIPEEAKTGRSRYGIAIKKFLAEKSLQAKV | -0.197 |
| HMISLPSYIREEATEVYNRLHDLGLEYTSLDVNDDSIPKGYVVRTVPEAGASVPAGQVVTVYVSLG | -0.829 |
| HMISQLRGKVLGTDRDALVIDVGGVGFRVSATAGARALAGQSGNEARLFTEMVVREDSIDLFGF | 0.0812 |
| HMISRKIKELRLSHDLTQKDLADYLNLTPKMVSFYELGQRVPPSDIILKLAEKFHVSTDYLLGNEDRP | -0.196 |
| HMITDNEFLRIVSFLKQRYGIDMSQKKVIMNGRLENYLKSGGWSSFDEYMNDVEKDTSGDLEKTLVNFLTT | -1.38 |
| HMITETIGANIKTLRDKFRMSQQDLASKMNTARPVISNWENGKTEPSSSQLLKLAKIFDTSTDKILGNV | 0.0689 |
| HMITKEDVANKKVNLLFFGNFHKMKLPDFEWGITEMMQDRDYLYGSLTKDLYFLGLVLDRKYKI | 0.241 |
| HMITKENYLEKIKEIKVNEFPASMRELYDFFNEATRNGTDWSAYEEGNVKYVVDAYLERLNLLYKSN | -1.01 |
| HMITLYIHNLEEVGKRLDHYLVSNLDDHSRSQIQSWIRSGSILVNDRSVKTGYSLELNDQILINPPK | -2.51 |
| HMITNSTEIEAMIDSLIKENPEQAEQYRNGNTKVVGWFVGQMMKASKGKANPQVVGDLLAQKLVG | 0.0621 |
| HMIVAHEINRHLGESDQPVEIPDNRREGAVAELLKTFNNDDAFREMDDGKYEVALDGEKVREAARSLLA | 0.0479 |
| HMIVDARNREINLGSHVRYVDTGTVGEVTDSKVENDASWVKIDKTNLWYLANKLELLNDEDFKT | 0.0789 |
| HMIVDINDVRIDKYIADNTDYSRNLILNLIKNGDILVNDSKIKPSYKVKQGDKITINNVKTD | 0.332 |
| HMIVKQPDIRKQELLDIGVRLYFEAGEKGVSIQQVVKQAGVATGLFYYYFSSKDAFLDEALNDYID | 0.0613 |
| HMIVLPGEELEVHIVQEGKEDGQGVAYLDDGTMVVVEGGRPYVDSFAYVAVTRVLQTGAGRIIFAHPTR | -2.54 |
| HMIYNSGTTDSRGEAIVGGYLVTVTDTDTKDPVANAAVTLHKDNSISIRLPNSRLLDYADQTTVTVQLV | 0.0328 |
| HMKAEKEIEKIKFTIYNEFKRKQEENHFLPPWDGTKMLRQFVLGVVANNPKYQHVNTDILYRDLLLLYYQ | -2 |
| HMKAFTKKELQDLVLNIFRASPTTNYNYKQLYKLIRGKDPEIKTLIIAVLLGLEKNGSILQMRPGKYKFS | 0.97 |
| HMKALDTVLSEIPGLGPVRIKQLLKVFGSVDAIRKASLQDLQQIEGIGPKLAQTIYEYFHQP | 0.898 |
| HMKALYNLDYEKPLSGSYYTETTARAAVPTDIRKLGLIITYKTDATTNITEQFVGSSISAWTTSGNWKSLG | -1.77 |
